Experiment: yeast display, Sf9 membrane polyspecificity reagent, FACS + sequencing; frameworks hold sequencing errors
Procedure, shortened: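 Sorting gates, low and high (top ~1%), were placed on anti-HA fluorescence to track expression and on streptavidin fluorescence to track reagent binding. A clone's polyreactivity label is taken from the gate it came out of. The reagent was 10% biotinylated, detergent-solubilized Sf9 membrane, applied for 1 hour at 4 °C to galactose-induced yeast display cells.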

Sequence	polyreactivity (PSR sort gate)
QVQLVESGGGLVQAGGSLRLSCAASGFISHKYAMGWYRHAHGKERELVAAISWSGTSTHYADSVKGRFTISRDNAKKTVYIQMKSLKPEDTAVYYCAARRYPVLKYDYWGEGTQVTVSS	high polyreactivity
QVQLVESGGGLVQAGGSLRLSCAASGFISKYYAMGRYRQAPGKERELVASISRDGSTSYADSVKGRFTISRDNAKNTVYLQMNSLKPEDTAVYYCAAPSYRTRYYYWGQGTQVTVSS	high polyreactivity
QVQLVESGGGLVQAGGSLRLSCAASGFISKYYAMGWSRQAPGKERELVASISRDGSTSYADSVKGRFTISRDNAKNTVYLQMNSLKPEDTAVYYCAAPRRWGDKYSFGYWGQGTQVTVSS	high polyreactivity
QVQLVESGGGLVQAGGSLRLSCAASGFISKYYAMGWYRQAPGKERELVASISRDGSTSYADSVKGRFTISRDNAKNTVYLQMNSLKPEDTAVYYCAAPSYRTRYYYWGQGTQVTVSS	high polyreactivity
QVQLVESGGGLVQAGGSLRLSCAASGFISPPYAMGWYRQAPGKVMELVAAISSNGGRTSYADSVKGRFTISRDNAKNTVYLQMNSLKPEDTAVYYCNAVYSLYYTRYNYWGQGTQETVSS	high polyreactivity
QVQLVESGGGLVQAGGSLRLSCAASGFISPQNTMGWYRQAPGKERELVAAITSGGSTYYADSVKGRFTISRDNAKNTVYLQMNSLKPEDTAVYYCAARPYGTWTYGYWGQGTQVTVSS	low polyreactivity
QVQLVESGGGLVQAGGSLRLSCAASGFISRFNSMGWYRKAPGKERELVAAISWYGGITYYADSVKGRFTISRDNAKNTVYLQMNSLKPEDTAVYYCNAGDHIRKRYGISATWGYGYGYWGQGTQVTVSS	high polyreactivity
QVQLVESGGGLVQAGGSLRLSCAASGFISRNAMGWYRQAPGKQRELVAGITRGGSTNYADSVKGRFTISRDNAKNTVYLHMNSLKPEYTAVYYFATRRRLKGLAYDYWGQGNQVTVSS	high polyreactivity
QVQLVESGGGLVQAGGSLRLSCAASGFISSENAMGWYRQAPGKERELVAAISSGGSTNYADSVKGRFTISRDNAKNTVYLQMNSLKPEDTAVYYCAATLPGWYNEDDSWGQGTQVNVSS	low polyreactivity
QVQLVESGGGLVQAGGSLRLSCAASGFISVRNAMGWYRQAPGKERELVAAISSGDTTDYADSVKGRFTISRDNAKNTVYLQMISLKPEDTAVYYCAAVYYGRYYYWGQGTQVTVSS	low polyreactivity
QVQLVESGGGLVQAGGSLRLSCAASGFIVKYNAMAWYRQAPGKERELVAAISYRGTRTYYADSVKGRFTISRDNAKNTVYLQMNSLKPEDTAVYYCNAGLTYNHDPYDYWGQGTQVTVSS	high polyreactivity
QVQLVESGGGLVQAGGSLRLSCAASGFIYGANAMGWYRQAPGKERALVAAISWNGGRTYYADSVKGRFTISRDNAKKTVYLQMNSLKPEDTAVYYCNARSWYSFQPQDYWGQGTQVTVSW	high polyreactivity
QVQLVESGGGLVQAGGSLRLSCAASGFIYGSNAMGWYRQAPGKERELVAAISRSGGSTYYADSVKGRFTISRDNAKNTVYLQMNSLKPEDTAVYYCNVDLWTFVYSWWSYDYWGQGTQVTVSS	high polyreactivity
QVQLVESGGGLVQAGGSLRLSCAASGFIYRDYVMGWYRQAPEKERELVAAISYRGGSTNYADSVKGRFTISRDNAMNTVFLQMNSLKPEDTSVYYCAADQVHKREYEYWGQGTQVTVSS	low polyreactivity
QVQLVESGGGLVQAGGSLRLSCAASGFIYVYAMGWYRQPPRKERELVAAITATGDSTYYADSVKGRFTISRDNAKNTVYLQMNSLKPEDTAVYYCAAEWHYFVTMYYWGQGTQVTVSS	low polyreactivity
QVQLVESGGGLVQAGGSLRLSCAASGFIYYRYAMGWYRQAPGKERELVAAISRSGGSTYYADSVKGRFTISRDNAKNTVYLQMNSLNPEDTAVYYCAARDPGGAVGAAFDSWGQCTQVTVSS	low polyreactivity
QVQLVESGGGLVQAGGSLRLSCAASGFLFYYYAMGWYRQAPGKEREFVAAIRWNGGSTYYADSVKGRFTISRDNAKNTVYLQMNSLKPEDTAVYYCAAVWVQTTYADLYKYYYWGQGTQVTVSS	low polyreactivity
QVQLVESGGGLVQAGGSLRLSCAASGFMFDGYAMGWYRQAPGKERELVAAINFSGGSTYYADSVKGRFTISRDNAKNTVYLQMNSLKPEETAVYYCNADLEWNWVQFGYGYWGQGTQVTVSS	low polyreactivity
QVQLVESGGGLVQAGGSLRLSCAASGFMFSSYAMGWYRQAPGKERELVAAISWSDSSTYYADSVKGRFTISRDNAKNTVYLQMNSLKPEDTADYYCAAVIGPDVYYLLYDYWGQGTQVTVSS	low polyreactivity
QVQLVESGGGLVQAGGSLRLSCAASGFNFDYYAMGWYRPAPGKVRELVAAITSRGGSTYYADSVKGRFTISRDNAKTTVYLQMNILKPEDTAVYYCSALRRSAEYNYWGQGTQVTVSS	high polyreactivity
QVQLVESGGGLVQAGGSLRLSCAASGFNFGGNAMGWYRQAPGKERELVAAISGSGGSTYYADSVKGRFTISRDNAKNTVYLQMNSLKPEDTAVYYCAVKFPPRKSYGYYYWGQGTQVTVSS	high polyreactivity

Sequence	polyreactivity (PSR sort gate)
QVQLVESGGGLVQAGGSLRLSCAASGFNFRGYAMGWYRQAPGKERELVAAINSGDSTNYADSVKGRFTISRDNAKNTVYLQMNSLKPEDTAVYYCAASIYAALNGGPGYDYWGQGTQVTVSS	low polyreactivity
QVQLVESGGGLVQAGGSLRLSCAASGFNFRYNTMGWYRKAPRKERELVAAISVSGARTYYADSVKGRFTISRDNAKNTVYLQMNSLKPEDTAVFYCNRRYTFYSRYNNDYWGQGTQVTVSS	high polyreactivity
QVQLVESGGGLVQAGGSLRLSCAASGFNFSKYAMGWYRQAPGKERELVARINYNGGSTYYADSVKGRFTISRDNAKNTVYLQMNSLKPEDTAVYYCALVWRFSTRYYYWGQGTQVTVSS	high polyreactivity
QVQLVESGGGLVQAGGSLRLSCAASGFNFVHYAMGWYRPAPGKDRELVAAISKRGGTTYYADSVKGRFTISRDNAKNTVYLQMNSLKPEDSAVYYCNADVTNWEDDYYYWGQGTQVNVSS	high polyreactivity
QVQLVESGGGLVQAGGSLRLSCAASGFNFVSYAMGWYRKAPGKERELVAVIDNSDGDTYYADSVKGRFTISRDNAKNTVYLQMNSLKPEDTAVYYCARDVSARGYLPFDYWGQGTQVTVSS	low polyreactivity
QVQLVESGGGLVQAGGSLRLSCAASGFNFVYYAMGWYREAPGKERELVAVISWSGGSTNYADSVKGRFTISRDNAKNTVYLQMNSLKPEDTAVYYCAADAYAYTPYYGYRVDYWGQGTQVTVSS	high polyreactivity
QVQLVESGGGLVQAGGSLRLSCAASGFNFWRNAMGWYRQAPGKERELVAVITWSGGRTYYADSVKGRFTFSRDNAKNSVYLQMNSLKPEDSAVYYCSTEIVGPHFDYWGQGTQVTVSS	low polyreactivity
QVQLVESGGGLVQAGGSLRLSCAASGFNYYTMGWYRQAPGKERELVAAINYSGGRTYYADSVKGRFTISRDNAKNTVYLQMNSLKPEDTAVYYCNTARSPYDHRPERSYDYWGLGTQVTVSS	high polyreactivity
QVQLVESGGGLVQAGGSLRLSCAASGFSFARNAMGWYRQAPGKERELVAAISDSGGRTYYADSVKGRFTISRDIAKNTVYLQMNSLKPEDTAVYYCAAALTFRMDYWGQGTQVTVSS	high polyreactivity
QVQLVESGGGLVQAGGSLRLSCAASGFSFKRYAMGWYRQAPGKERELVADITRGGRTNYADSVKGRFTISRDNAKNTVYLQINSLKPEDTAVYYCNAVRQKYRFEYDYWGQGTQVTVSS	high polyreactivity
QVQLVESGGGLVQAGGSLRLSCAASGFSFKYYAMGWYRQAPGKERELVATIRRGGSTYADSVKGRFTISRDNAKNSVYLQMNSLKPDDTAVYYCATRISSSTVPLYYFSGYNYWGQGTQVTVSS	high polyreactivity
QVQLVESGGGLVQAGGSLRLSCAASGFSFRQYAMGWYRQAPGKERELVAAISRSGSRTYYADSVKGRFTLSRDNAKNTGYLQMNSLKAEDTAVYYCNAVFSTFTGEYYWGQGTQVTVSS	high polyreactivity
QVQLVESGGGLVQAGGSLRLSCAASGFSFSDYPMGWYRQAPGKERELVAAISGSGGSTYYADSVKGRFTISRDTAKNSVYLQMNSLKPEDTSVYYCNKGYARRYASGYDYWGQGTQVTVSS	high polyreactivity
QVQLVESGGGLVQAGGSLRLSCAASGFSIYRNSMGWYRPAPGKERELVAGISSGGSTNYADSVKGRFTISRDNAKNTVYLQMNSLKPEDTAVYYCATRVYALWFGRYDYWGQGTQVTVSS	high polyreactivity
QVQLVESGGGLVQAGGSLRLSCAASGFTAVGNAMGWYRPAPGKERELVASITNGGSTNYADSVKGRFTISRDNAKNTVYIQMNSLKPEDTAVYYCATDTYFDYTGALSHSGYYYWGQGTQVTVSS	low polyreactivity
QVQLVESGGGLVQAGGSLRLSCAASGFTCPSYNMRWYRQAPGKERELVAAISRSDGNTYYADSVKGRFTISRDNAKNTVYLQMNSLKPEDTEVYYCAAEYEAYAYEYWGQGTQVTVSS	high polyreactivity
QVQLVESGGGLVQAGGSLRLSCAASGFTCPYYMGWYRQAPGKERELVADISWSDGSTYYADSVKGRFTISRDNAKNTVSLQMNSLKPEDTAVYYCAADYVSSWFYLPEYDYWGQGTQVTVSS	high polyreactivity
QVQLVESGGGLVQAGGSLRLSCAASGFTFADNAMGGYREAPGKERQFVASITYSTGSTYADSVKGRFTISRDNAKNTVYLQMHSLTPEDTAVYYCAVDNISNWAVENDYWGQGTQVTVSS	low polyreactivity
QVQLVESGGGLVQAGGSLRLSCAASGFTFAFYAMGWYRQAPGKERELVAAISRRGGSTTYADSVKGRFTISRDNAKNTVYLQMNSLKPEDTAVYYCAAGWRGGRYRYFAYDYWGQGTQVTVSS	high polyreactivity
QVQLVESGGGLVQAGGSLRLSCAASGFTFAGYAMGWYRQAPGKDRELVAAISWSGGRTYYADSVKGRFTISRDNAKNTVYLQMNSLKPEDTAVYYCAKLTLSSRWYYIYDYWGQGTQVTVSS	high polyreactivity
